Test results published in US20140235820A1, “METHODS AND COMPOSITIONS FOR MODULATING THE Wnt PATHWAY” (Genentech, Inc., priority 2010, published 2014).

T1: LRP6 E1E2 (Homo sapiens, UniProt O75581)
T1 construct: construct E1E2-amino acids A20-E631 of LPR6; made in house; host or cells: Tni insect cells (baculovirus, secreted)
T1 sequence (O75581 20-631): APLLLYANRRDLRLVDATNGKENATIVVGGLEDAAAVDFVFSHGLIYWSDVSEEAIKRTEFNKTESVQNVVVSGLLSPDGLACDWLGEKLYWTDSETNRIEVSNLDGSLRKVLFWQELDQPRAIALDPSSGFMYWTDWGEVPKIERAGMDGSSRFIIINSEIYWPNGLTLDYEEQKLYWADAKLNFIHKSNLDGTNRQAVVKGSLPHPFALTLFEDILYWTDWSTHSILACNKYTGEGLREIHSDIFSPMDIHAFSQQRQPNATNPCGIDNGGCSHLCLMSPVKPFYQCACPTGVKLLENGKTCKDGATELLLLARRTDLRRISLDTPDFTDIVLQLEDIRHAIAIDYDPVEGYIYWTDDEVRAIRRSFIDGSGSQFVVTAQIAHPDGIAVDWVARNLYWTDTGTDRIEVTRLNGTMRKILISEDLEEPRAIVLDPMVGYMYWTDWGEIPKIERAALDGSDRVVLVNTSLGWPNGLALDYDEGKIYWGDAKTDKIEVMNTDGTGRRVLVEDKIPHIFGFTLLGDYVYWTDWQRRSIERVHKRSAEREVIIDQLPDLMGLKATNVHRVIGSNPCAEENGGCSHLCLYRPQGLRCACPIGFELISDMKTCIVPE

T2: LRP6 E1E4 (Homo sapiens, UniProt O75581)
T2 construct: construct E1E4-amino acids A20-Q1253 of LPR6; made in house; host or cells: Tni insect cells (baculovirus, secreted)
T2 sequence (O75581 20-1253): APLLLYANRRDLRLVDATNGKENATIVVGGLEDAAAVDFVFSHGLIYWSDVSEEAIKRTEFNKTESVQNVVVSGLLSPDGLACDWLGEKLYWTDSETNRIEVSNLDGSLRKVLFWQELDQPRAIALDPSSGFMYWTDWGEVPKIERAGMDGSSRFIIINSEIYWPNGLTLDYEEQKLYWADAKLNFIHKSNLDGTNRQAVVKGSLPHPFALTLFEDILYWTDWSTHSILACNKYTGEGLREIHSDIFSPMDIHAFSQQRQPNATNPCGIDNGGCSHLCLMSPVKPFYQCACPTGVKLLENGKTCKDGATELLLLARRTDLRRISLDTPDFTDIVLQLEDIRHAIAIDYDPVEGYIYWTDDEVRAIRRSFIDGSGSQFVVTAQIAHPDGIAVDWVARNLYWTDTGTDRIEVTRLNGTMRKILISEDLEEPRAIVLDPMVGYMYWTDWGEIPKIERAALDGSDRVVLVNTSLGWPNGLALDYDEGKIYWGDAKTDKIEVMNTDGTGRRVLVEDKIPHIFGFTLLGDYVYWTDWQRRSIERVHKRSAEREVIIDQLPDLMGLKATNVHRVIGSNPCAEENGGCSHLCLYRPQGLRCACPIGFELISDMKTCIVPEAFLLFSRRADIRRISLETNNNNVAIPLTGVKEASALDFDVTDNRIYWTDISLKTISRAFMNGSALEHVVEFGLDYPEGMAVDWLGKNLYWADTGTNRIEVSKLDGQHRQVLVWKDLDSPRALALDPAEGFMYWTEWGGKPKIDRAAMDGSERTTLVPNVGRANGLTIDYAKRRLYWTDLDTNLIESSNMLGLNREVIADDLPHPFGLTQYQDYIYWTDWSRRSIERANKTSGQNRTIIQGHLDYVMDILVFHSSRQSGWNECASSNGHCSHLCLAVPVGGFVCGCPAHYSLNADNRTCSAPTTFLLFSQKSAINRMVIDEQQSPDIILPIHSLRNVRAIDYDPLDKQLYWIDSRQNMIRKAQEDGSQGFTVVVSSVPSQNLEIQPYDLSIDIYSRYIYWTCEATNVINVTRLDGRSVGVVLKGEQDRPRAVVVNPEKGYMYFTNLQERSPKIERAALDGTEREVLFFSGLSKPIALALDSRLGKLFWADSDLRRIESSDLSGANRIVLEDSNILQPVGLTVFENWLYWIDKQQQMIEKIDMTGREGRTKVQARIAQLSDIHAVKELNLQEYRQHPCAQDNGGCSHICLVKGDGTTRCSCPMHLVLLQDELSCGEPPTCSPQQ


How the values were obtained:
LRP6 E1E2 = molecular target: T1, LRP6 E1E2; test: Biolayer interferometry binding to LRP6 E1E2
Protocol: (§1) Binding kinetics were measured by biolayer interferometry using an Octet Red instrument (ForteBio) as previously described (11). Streptavidin (SA) biosensors were loaded with biotinylated hLRP6 in 50 mMTris, pH 8, 300 mM NaCl, 5% (v/v) glycerol, and 0.05% (w/v) Triton X-100. The loaded biosensors were washed in the same buffer before carrying out association and dissociation measurements for the indicated times. The Kd of each interaction was determined using steady state-analysis through the Octet Red software v6.3. Each reported value represents an average of three or more experiments at different concentrations, with a fitted experimental curve for which the square of the correlation coefficient (R^2) is above 0.96.
(§2) The interaction of the different Dkks and sclerostin with various domains of LRP6 was measured using a biolayer interferometry assay (11). Purified receptors contained individual β-propeller-EGF-like units (E1, E2, or E4), two β-propellers (E1E2 or E3E4), or four β-propellers (E1E4))—as follows:
(§3) Human LRP6: construct E1E4-amino acids A20-Q1253 of LPR6; construct E1E2-amino acids A20-E631 of LPR6; construct E3E4 amino acids E631-Q1253 of LPR6; construct E1-amino acids A20-D325 of LPR6; construct E2-amino acids […]-E631 of LPR6; construct E4-T933-Q1253. The individual LRP6 β-propeller E3 could not be expressed.

LRP6 E1E4 = molecular target: T2, LRP6 E1E4; test: Biolayer interferometry binding to LRP6 E1E4
Protocol: as §1, §2, §3

Molecule	binding to LRP6 E1E2 (in words) (LRP6 E1E2)	binding to LRP6 E1E4 (in words) (LRP6 E1E4)	Kd (LRP6 E1E2; steady state, read-out: affinity for LRP6 E1E2) [nM]
sclerostin: Sclerostin protein, Wnt pathway inhibitor, expressed in insect cells (LPNAIGR)	binds	binds	
Dkk1: Dickkopf 1 protein, Wnt pathway inhibitor, expressed in insect cells (NSNAIKN)			22
Dkk1 Ile42Glu (ligand, human, UniProt O94907 32-266, looked up, also called Dkk1 I42E) TLNSVLNSNAEKNLPPPLGGAAGHPGSAVSAAPGILYPGGNKYQTIDNYQPYPCAEDEECGTDEYCASPTRGGDAGVQICLACRKRRKRCMRHAMCCPGNYCKNGICVSSDQNHFRGEIEETITESFGNDHSTLDGYSRRTTLSSKMYHTKGQEGSVCLRSSDCASGLCCARHFWSKICKPVLKEGQVCTKHRRKGSHGLEIFQRCYCGEGLSCRIQKDHHQASNSSRLHTCQRH	affect binding	retain binding	
Dkk1 K211E (ligand, human, UniProt O94907 32-266, looked up, also called Dkk1 Lys211Glu) TLNSVLNSNAIKNLPPPLGGAAGHPGSAVSAAPGILYPGGNKYQTIDNYQPYPCAEDEECGTDEYCASPTRGGDAGVQICLACRKRRKRCMRHAMCCPGNYCKNGICVSSDQNHFRGEIEETITESFGNDHSTLDGYSRRTTLSSKMYHTKGQEGSVCLRSSDCASGLCCARHFWSKICEPVLKEGQVCTKHRRKGSHGLEIFQRCYCGEGLSCRIQKDHHQASNSSRLHTCQRH		retain binding	
